The values that follow come from IntAct's records for PubMed 27065194.

B1: Protein BTG4 (Mus musculus), O70552 (parent)
chain: MRDEIATAVFFVTRLVKKHEKLSTQQIETFALKLMTILFEKYRGHWHPDCPSKGQAFRCIRINNNENKDPVLERACAESNVNFFHLGLPKEMTIWVDPYEVCCRYGEKKHPFTIASFKGRWENWELAQHVSCAVNRATGDCSSGTSSDEESCSREAQIIPKVNNPKSVYQVENFKQSLQPWFCLPRRKHLADGRGFLPGAACHPVPKSSKWCRPASRRVDRYHWVNAQLFSGQTAPGEPGEEALSSLKQK

Variants of B1 are the subject of the first test. To be noted: with cnot7_mouse Cnot7, Q60809.
Sequence of cnot7_mouse Cnot7, Q60809 (Q60809 whole entry): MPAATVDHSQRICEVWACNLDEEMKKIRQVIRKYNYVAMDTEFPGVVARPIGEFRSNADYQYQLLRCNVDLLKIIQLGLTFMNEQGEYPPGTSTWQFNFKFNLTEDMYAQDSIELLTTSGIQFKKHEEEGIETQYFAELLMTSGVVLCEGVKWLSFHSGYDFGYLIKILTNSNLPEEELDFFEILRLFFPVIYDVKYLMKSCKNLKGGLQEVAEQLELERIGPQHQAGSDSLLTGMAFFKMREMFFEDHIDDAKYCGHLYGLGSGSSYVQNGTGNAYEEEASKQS
With E107A, the “effect of a mutation on the interaction” value is on record as “disrupting interaction strength”.
Consider H45A, for which the “effect of a mutation on the interaction” value is on record as “disrupting interaction strength”.
The same measure, in the same setting: the entry for C59A is “decreasing interaction strength”; for W95A it is “disrupting interaction strength”.
With R58A, the “effect of a mutation on the interaction” value was “disrupting interaction strength”.
For the variant D69A, the “effect of a mutation on the interaction” value is “disrupting interaction strength”.
For the variant W46A, the “effect of a mutation on the interaction” value was “disrupting interaction strength”.

Variants of B1 are the subject of the next test. To be noted: with cnot8_mouse Cnot8, Q9D8X5.
Sequence of cnot8_mouse Cnot8, Q9D8X5 (Q9D8X5 whole entry): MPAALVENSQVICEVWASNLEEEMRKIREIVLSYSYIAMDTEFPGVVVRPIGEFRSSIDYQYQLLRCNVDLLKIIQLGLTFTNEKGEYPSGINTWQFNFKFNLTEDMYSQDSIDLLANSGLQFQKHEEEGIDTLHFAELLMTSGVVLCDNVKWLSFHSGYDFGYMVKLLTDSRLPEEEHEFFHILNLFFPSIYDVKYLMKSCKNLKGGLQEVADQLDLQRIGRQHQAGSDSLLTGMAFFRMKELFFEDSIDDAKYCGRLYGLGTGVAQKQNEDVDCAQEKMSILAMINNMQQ
In the case of W95A, the “effect of a mutation on the interaction” value is “disrupting interaction strength”.
